Experimental data reported in the Immune Epitope Database (IEDB).

Columns and labels:
Assay in all cases: IEDB peptide-MHC binding, purified MHC/competitive/radioactivity; filed as Kd, often an IC50 or EC50 that approximates it; ≥ and ≤ were set here for values at or beyond the usual limits of such assays
HLA-A*03:01 = biological target: HLA-A*03:01
HLA-A*11:01 = biological target: HLA-A*11:01
HLA-A*31:01 = biological target: HLA-A*31:01
HLA-A*33:01 = biological target: HLA-A*33:01
HLA-A*68:01 = biological target: HLA-A*68:01
HLA-A*02:03 = biological target: HLA-A*02:03
HLA-A*02:06 = biological target: HLA-A*02:06
[1] = source organism: Triticum aestivum
[2] = source organism: Vaccinia virus WR
[3] = source organism: SARS coronavirus Tor2
[4] = source organism: Dengue virus 1 Brazil/97-11/1997
[5] = source organism: Lassa virus Josiah
[6] = source organism: Lymphocytic choriomeningitis virus (strain Armstrong)
[7] = source organism: Mammarenavirus whitewaterense
[8] = source organism: Mammarenavirus guanaritoense
[9] = source organism: Dengue virus 2 Jamaica/1409/1983
[10] = source organism: Mammarenavirus brazilense

Row | Sequence | Kd (HLA-A*03:01; [2]) | Kd (HLA-A*11:01; [2]) | Kd (HLA-A*31:01; [2]) | Kd (HLA-A*33:01; [2]) | Kd (HLA-A*68:01; [2]) | further results
1 | QQQQQQQQQK |  |  |  |  |  | Kd (HLA-A*03:01; [1]): 11.2 µM; Kd (HLA-A*11:01; [1]): 4.84 µM; Kd (HLA-A*31:01; [1]): ≥ 23.2 µM; Kd (HLA-A*33:01; [1]): ≥ 70 µM; Kd (HLA-A*68:01; [1]): ≥ 46.7 µM
2 | KSSSIDVDK | 14.2 µM | 0.161 µM | 17.7 µM | ≥ 77.7 µM | 8.59 µM | 
3 | AVIIRGHLR |  |  |  |  |  | Kd (HLA-A*03:01; [3]): ≥ 33.4 µM; Kd (HLA-A*11:01; [3]): 2.24 µM; Kd (HLA-A*31:01; [3]): 0.136 µM; Kd (HLA-A*33:01; [3]): ≥ 28.2 µM; Kd (HLA-A*68:01; [3]): 2.64 µM
4 | KIEEIEKVEK | 1.52 µM | 0.709 µM | 9.01 µM | ≥ 47 µM | 0.417 µM | 
5 | RLVEEFFNR | 0.0212 µM | 0.0881 µM | 0.00139 µM | 0.796 µM | 0.0294 µM | 
6 | LLAMGCYSQV |  |  |  |  |  | Kd (HLA-A*02:03; source organism: Dengue virus 4 Philippines/H241/1956): 0.00267 µM
7 | DLLNVTYNIK | 0.367 µM | 0.302 µM | 15.2 µM | 1.11 µM | 1.67 µM | 
8 | KIVGLYGNGV |  |  |  |  |  | Kd (HLA-A*02:06; [4]): 0.0147 µM
9 | GIVAIDLDPV |  |  |  |  |  | Kd (HLA-A*02:06; [4]): 0.0097 µM
10 | TCQGSDDIRK |  |  |  |  |  | Kd (HLA-A*03:01; [5]): ≥ 70 µM; Kd (HLA-A*11:01; [5]): 7 µM; Kd (HLA-A*31:01; [5]): ≥ 49.9 µM; Kd (HLA-A*33:01; [5]): ≥ 70 µM; Kd (HLA-A*68:01; [5]): 5.71 µM
11 | ESLLKETIQK | 0.0267 µM | 0.00974 µM | 13.2 µM | 14.8 µM | 0.332 µM | 
12 | QFKQDSKYSH |  |  |  |  |  | Kd (HLA-A*03:01; [6]): ≥ 70 µM; Kd (HLA-A*11:01; [6]): ≥ 69.7 µM; Kd (HLA-A*31:01; [6]): 13 µM; Kd (HLA-A*33:01; [6]): 2.91 µM; Kd (HLA-A*68:01; [6]): ≥ 70.1 µM
13 | NSVANRSKQK | 0.322 µM | 0.525 µM | 17 µM | ≥ 70 µM | 0.568 µM | 
14 | LFMEMFFDY | ≥ 37.6 µM | ≥ 59.5 µM | 13 µM | ≥ 56.1 µM | ≥ 70.2 µM | 
15 | TVLPHLCLDY | 0.00408 µM | 0.00299 µM | 0.598 µM | 6.05 µM | 0.701 µM | 
16 | IMNLEMIDER | ≥ 70.1 µM | 19.2 µM | 1.28 µM | 1.56 µM | 3.61 µM | 
17 | SVQLSNNKY | 2.71 µM | 0.0331 µM | 17.5 µM | 13.6 µM | 1.25 µM | 
18 | CLFDRYFKY |  |  |  |  |  | Kd (HLA-A*03:01; [3]): 0.00143 µM; Kd (HLA-A*11:01; [3]): 0.00059 µM; Kd (HLA-A*31:01; [3]): 0.215 µM; Kd (HLA-A*33:01; [3]): 1.55 µM; Kd (HLA-A*68:01; [3]): 0.137 µM

Row | Sequence | Kd (HLA-A*03:01; [2]) | Kd (HLA-A*11:01; [2]) | Kd (HLA-A*31:01; [2]) | Kd (HLA-A*33:01; [2]) | Kd (HLA-A*68:01; [2]) | further results
19 | NLLVQYGAK | 0.274 µM | 12.6 µM | ≥ 20.8 µM | ≥ 22.3 µM | 2.49 µM | 
20 | VCFWSTLFY |  |  |  |  |  | Kd (HLA-A*03:01; [7]): 0.138 µM; Kd (HLA-A*11:01; [7]): 0.93 µM; Kd (HLA-A*31:01; [7]): ≥ 77.9 µM; Kd (HLA-A*33:01; [7]): ≥ 77.7 µM; Kd (HLA-A*68:01; [7]): ≥ 39.2 µM
21 | MAVEVGSIR | ≥ 78 µM | 0.0395 µM | 0.279 µM | 0.245 µM | 0.00136 µM | 
22 | AMSFDGFIR | 9.6 µM | 0.327 µM | 0.0718 µM | 3.15 µM | 0.898 µM | 
23 | YVPSAEDNY | ≥ 78 µM | ≥ 77.9 µM | ≥ 77.9 µM | ≥ 77.7 µM | ≥ 36.1 µM | 
24 | EQNLTDTNFK | 17.9 µM | 1.25 µM | ≥ 70 µM | ≥ 60.6 µM | 0.681 µM | 
25 | TRFWYINHTK |  |  |  |  |  | Kd (HLA-A*03:01; [8]): 1.91 µM; Kd (HLA-A*11:01; [8]): 1.41 µM; Kd (HLA-A*31:01; [8]): 0.0895 µM; Kd (HLA-A*33:01; [8]): ≥ 70 µM; Kd (HLA-A*68:01; [8]): 0.0932 µM
26 | LFTSTNDKIK | ≥ 24.9 µM | 0.915 µM | ≥ 65.6 µM | ≥ 55.2 µM | 0.531 µM | 
27 | SSVQLSNNK | 2.2 µM | 0.00521 µM | 4.58 µM | ≥ 77.7 µM | 0.0199 µM | 
28 | TLYICDKQSH |  |  |  |  |  | Kd (HLA-A*03:01; [6]): 15.1 µM; Kd (HLA-A*11:01; [6]): ≥ 47.8 µM; Kd (HLA-A*31:01; [6]): ≥ 34.3 µM; Kd (HLA-A*33:01; [6]): ≥ 70 µM; Kd (HLA-A*68:01; [6]): ≥ 70.1 µM
29 | RSKMLKRGSR | 0.279 µM | 1.17 µM | 0.00061 µM | 0.128 µM | 0.166 µM | 
30 | GTGLWTHDK | 0.0247 µM | 0.000361 µM | 0.805 µM | ≥ 65.6 µM | 0.156 µM | 
31 | VLHDIGNPK |  |  |  |  |  | Kd (HLA-A*03:01; [3]): 0.0215 µM; Kd (HLA-A*11:01; [3]): 0.0343 µM; Kd (HLA-A*31:01; [3]): 1.96 µM; Kd (HLA-A*33:01; [3]): 7.77 µM; Kd (HLA-A*68:01; [3]): 6.52 µM
32 | GQVMLLILCV |  |  |  |  |  | Kd (HLA-A*02:06; [9]): 0.0772 µM
33 | LMAIDLGEL |  |  |  |  |  | Kd (HLA-A*02:03; [9]): 0.0153 µM
34 | QAEPSLYGRH |  |  |  |  |  | Kd (HLA-A*03:01; [10]): ≥ 70 µM; Kd (HLA-A*11:01; [10]): ≥ 69.7 µM; Kd (HLA-A*31:01; [10]): ≥ 20 µM; Kd (HLA-A*33:01; [10]): ≥ 70 µM; Kd (HLA-A*68:01; [10]): ≥ 70.1 µM
35 | QLEDSEYLFR | 0.376 µM | 0.0791 µM | 0.182 µM | 0.04 µM | 0.0909 µM | 
36 | YLGVNNLPY | 1.3 µM | 1.49 µM | ≥ 77.9 µM | ≥ 77.7 µM | ≥ 52.7 µM | 
